Results taken from patent US20220291209, “MOLECULAR TARGET IN CANCER” (The Regents of the University of California, published 2022).

Key:
[1] = target: T1, U1A (UniProt P09012 P09012:1-282); experiment: TR-FRET/HTRF; 5 nM U1A, 1.25 nM RNA; 150 mM NaCl, 25 mM HEPES pH 7.3, 1 mM DTT, 0.05% pluronic F-127, room temperature; details: tags: His tag, LS Bio G19194-10; named Biotin5')
[2] = target: T2, MSI2 (Musashi-2) (UniProt Q96DH6 Q96DH6:1-328); experiment: TR-FRET/HTRF; 5 nM MSI2, 1.25 nM RNA; 150 mM NaCl, 25 mM HEPES pH 7.3, 1 mM DTT, 0.05% pluronic F-127, room temperature; details: tags: His tag, LS Bio G2396; named Biotin5')
[3] = target: T2, MSI2 (Musashi-2); experiment: competition; displaces NUMB-Biotin RNA from MSI2; titrated from 1000 nM; IC50 only in figure; details: tags: His tag, LS Bio G2396
[4] = target: T1, U1A; experiment: competition; displaces Target-Biotin RNA from U1A; titrated from 1000 nM; IC50 only in figure; details: tags: His tag, LS Bio G19194-10

T2 sequence (Q96DH6 whole entry, one chain of several): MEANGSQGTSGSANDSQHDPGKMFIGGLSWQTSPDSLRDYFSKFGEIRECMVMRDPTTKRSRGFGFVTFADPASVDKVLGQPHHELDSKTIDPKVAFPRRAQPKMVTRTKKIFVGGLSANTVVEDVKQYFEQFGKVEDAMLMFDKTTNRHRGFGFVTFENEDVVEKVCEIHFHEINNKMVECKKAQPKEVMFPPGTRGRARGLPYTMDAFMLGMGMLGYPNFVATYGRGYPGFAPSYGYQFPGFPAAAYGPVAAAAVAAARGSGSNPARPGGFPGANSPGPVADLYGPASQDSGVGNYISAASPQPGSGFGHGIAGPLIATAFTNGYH
T1 sequence (P09012 whole entry, one chain of several): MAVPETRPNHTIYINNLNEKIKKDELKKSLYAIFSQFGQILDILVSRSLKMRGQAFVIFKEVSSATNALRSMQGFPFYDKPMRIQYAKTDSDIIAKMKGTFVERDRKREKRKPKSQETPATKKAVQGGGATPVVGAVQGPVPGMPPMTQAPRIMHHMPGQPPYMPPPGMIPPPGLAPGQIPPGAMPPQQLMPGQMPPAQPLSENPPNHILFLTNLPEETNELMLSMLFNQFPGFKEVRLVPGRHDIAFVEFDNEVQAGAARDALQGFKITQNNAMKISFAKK

AUUGCACUCCUUUUA (ssRNA) [U1A Target-Biotin RNA probe]
binding result [1]: binds

UAGGUAGUAGUUUUA (ssRNA) [NUMB-Biotin RNA probe]
binding result [2]: binds

UAGGUAGUAGUUUUA (ssRNA) [NUMB-CTRL RNA (unlabelled)]
binding result [3]: binds

AUUGCACUCCUUUUA (ssRNA) [U1A Target-CTRL RNA (unlabelled)]
binding result [4]: binds
